Test results: patent US20250215412A1 (NOVOZYMES A S, published 2025)
Substitutions are numbered along the chain they refer to.

What was measured:
Test in all cases: cell-based or functional assay
[1] = molecular target: T1, Chryseobacterium sp-62563 deamidase V190K (Chryseobacterium sp-62563)
T1 chain: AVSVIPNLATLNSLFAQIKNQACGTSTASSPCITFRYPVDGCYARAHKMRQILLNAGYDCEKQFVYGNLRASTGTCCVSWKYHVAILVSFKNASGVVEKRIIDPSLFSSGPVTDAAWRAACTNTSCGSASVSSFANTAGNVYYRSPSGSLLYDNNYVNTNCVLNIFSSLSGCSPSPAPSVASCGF

[2] = molecular target: T2, Chryseobacterium sp-62563 deamidase S254K (Chryseobacterium sp-62563)
T2 chain: T1 chain with K81V, S145K

[3] = molecular target: T3, Chryseobacterium sp-62563 deamidase Y252S (Chryseobacterium sp-62563)
T3 chain: T1 chain with K81V, Y143S

[4] = molecular target: T4, Chryseobacterium sp-62563 deamidase V190M (Chryseobacterium sp-62563)
T4 chain: T1 chain with K81M

[5] = molecular target: T5, Chryseobacterium sp-62563 deamidase V190A (Chryseobacterium sp-62563)
T5 chain: T1 chain with K81A

[6] = molecular target: T6, Chryseobacterium sp-62563 deamidase L260K (Chryseobacterium sp-62563)
T6 chain: T1 chain with K81V, L151K

[7] = molecular target: T7, Chryseobacterium sp-62563 deamidase V190Y (Chryseobacterium sp-62563)
T7 chain: T1 chain with K81Y

[8] = molecular target: T8, Chryseobacterium sp-62563 deamidase V190G (Chryseobacterium sp-62563)
T8 chain: T1 chain with K81G

[9] = molecular target: T9, Chryseobacterium sp-62563 deamidase polypeptide (second polypeptide, deamidase domain), wildtype (Chryseobacterium sp-62563)
T9 chain: T1 chain with K81V

B1: Chryseobacterium sp-62563 propeptide (first polypeptide, propeptide domain), wildtype (other)
chain: NQDPNLVAKESNETAMKDFGKTVPVGIEKEDGKFKISFMVTAQPYEIKDSKENAAYISMIKTAVENETPIHVFLKANTNEIAKVDKATDDDIRYFKSVFTKEVKEENRK
- NanoDSF thermal unfolding temperature [1]: 76.4 ° C.
- NanoDSF thermal unfolding temperature [2]: 81.1 ° C.
- NanoDSF thermal unfolding temperature [3]: 73.4 ° C.
- NanoDSF thermal unfolding temperature [4]: 82 ° C.
- NanoDSF thermal unfolding temperature [5]: 68.6 ° C.
- NanoDSF thermal unfolding temperature [6]: 75.5 ° C.
- NanoDSF thermal unfolding temperature [7]: 81.5 ° C.
- NanoDSF thermal unfolding temperature [8]: 78 ° C.
- NanoDSF thermal unfolding temperature [9]: 85.3 ° C.
